This is an account of results in PMC3154423.

What all share (test): ITC
For orientation: ITC needs no label: the signal is the heat of the interaction.

Series [1] concerns the target Jun bZIP R272A;Fos bZIP R143A (human;human, UniProt P05412;P01100 252-315;137-200, R272A|R143A).
The target in series [2] is Jun bZIP R259A;Fos bZIP R157A (human;human, UniProt P05412;P01100 252-315;137-200, R259A|R157A).
In series [3] the target is Jun bZIP R259A;Fos bZIP K153A (human;human, UniProt P05412;P01100 252-315;137-200, R259A|K153A).
Jun bZIP R259A;Fos bZIP K153A, sequence (P05412 252-315 R259A, chain 1 of 2): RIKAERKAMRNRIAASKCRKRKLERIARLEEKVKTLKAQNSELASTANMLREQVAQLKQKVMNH
Jun bZIP R259A;Fos bZIP K153A, sequence (P01100 137-200 K153A, chain 2 of 2): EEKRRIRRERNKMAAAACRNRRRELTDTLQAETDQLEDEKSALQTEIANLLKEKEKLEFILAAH
Series [4] addresses Jun bZIP R270A;Fos bZIP R146A (human;human, UniProt P05412;P01100 252-315;137-200, R270A|R146A).
In series [5] the target is Jun bZIP K268A;Fos bZIP R146A (human;human, UniProt P05412;P01100 252-315;137-200, K268A|R146A).
Jun bZIP K268A;Fos bZIP R146A, sequence (P05412 252-315 K268A, chain 1 of 2): as the sequence (P05412 252-315 R259A, chain 1 of 2) above, with A8R, K17A counted along it
Jun bZIP K268A;Fos bZIP R146A, sequence (P01100 137-200 R146A, chain 2 of 2): as the sequence (P01100 137-200 K153A, chain 2 of 2) above, with R10A, A17K counted along it
For series [6], the target named is Jun bZIP K273A;Fos bZIP R158A (human;human, UniProt P05412;P01100 252-315;137-200, K273A|R158A).
Jun bZIP K273A;Fos bZIP R158A, sequence (P05412 252-315 K273A, chain 1 of 2): as the sequence (P05412 252-315 R259A, chain 1 of 2) above, with A8R, K22A counted along it
Jun bZIP K273A;Fos bZIP R158A, sequence (P01100 137-200 R158A, chain 2 of 2): as the sequence (P01100 137-200 K153A, chain 2 of 2) above, with A17K, R22A counted along it
The target in series [7] is Jun bZIP K258A;Fos bZIP R143A (human;human, UniProt P05412;P01100 252-315;137-200, K258A|R143A).
Jun bZIP K258A;Fos bZIP R143A, sequence (P05412 252-315 K258A, chain 1 of 2): as the sequence (P05412 252-315 R259A, chain 1 of 2) above, with K7A, A8R counted along it
Jun bZIP K258A;Fos bZIP R143A, sequence (P01100 137-200 R143A, chain 2 of 2): as the sequence (P01100 137-200 K153A, chain 2 of 2) above, with R7A, A17K counted along it
For series [8], the target named is Jun bZIP K258A;Fos bZIP R158A (human;human, UniProt P05412;P01100 252-315;137-200, K258A|R158A).
Jun bZIP K258A;Fos bZIP R158A, sequence (P05412 252-315 K258A, chain 1 of 2): as the sequence (P05412 252-315 R259A, chain 1 of 2) above, with K7A, A8R counted along it
Jun bZIP K258A;Fos bZIP R158A, sequence (P01100 137-200 R158A, chain 2 of 2): as the sequence (P01100 137-200 K153A, chain 2 of 2) above, with A17K, R22A counted along it
Series [9] has as its target Jun bZIP K258A;Fos bZIP K153A (human;human, UniProt P05412;P01100 252-315;137-200, K258A|K153A).
The target in another series is Jun-Jun bZIP K258A (human, UniProt P05412 252-315, K258A).
Jun-Jun bZIP K258A, sequence (P05412 252-315 K258A): as the sequence (P05412 252-315 R259A, chain 1 of 2) above, with K7A, A8R counted along it
In series [10] the target is Jun bZIP K268A;Fos bZIP R155A (human;human, UniProt P05412;P01100 252-315;137-200, K268A|R155A).
Jun bZIP K268A;Fos bZIP R155A, sequence (P05412 252-315 K268A, chain 1 of 2): as the sequence (P05412 252-315 R259A, chain 1 of 2) above, with A8R, K17A counted along it
Jun bZIP K268A;Fos bZIP R155A, sequence (P01100 137-200 R155A, chain 2 of 2): as the sequence (P01100 137-200 K153A, chain 2 of 2) above, with A17K, R19A counted along it
For series [11], the target named is Jun bZIP K258A;Fos bZIP R146A (human;human, UniProt P05412;P01100 252-315;137-200, K258A|R146A).
Jun bZIP K258A;Fos bZIP R146A, sequence (P05412 252-315 K258A, chain 1 of 2): as the sequence (P05412 252-315 R259A, chain 1 of 2) above, with K7A, A8R counted along it
Jun bZIP K258A;Fos bZIP R146A, sequence (P01100 137-200 R146A, chain 2 of 2): as the sequence (P01100 137-200 K153A, chain 2 of 2) above, with R10A, A17K counted along it
Series [12] deals with Jun bZIP K273A;Fos bZIP R146A (human;human, UniProt P05412;P01100 252-315;137-200, K273A|R146A).
Jun bZIP K273A;Fos bZIP R146A, sequence (P05412 252-315 K273A, chain 1 of 2): as the sequence (P05412 252-315 R259A, chain 1 of 2) above, with A8R, K22A counted along it
Jun bZIP K273A;Fos bZIP R146A, sequence (P01100 137-200 R146A, chain 2 of 2): as the sequence (P01100 137-200 K153A, chain 2 of 2) above, with R10A, A17K counted along it
The target of series [13] is Jun bZIP R259A;Fos bZIP R158A (human;human, UniProt P05412;P01100 252-315;137-200, R259A|R158A).
Jun bZIP R259A;Fos bZIP R158A, sequence (P05412 252-315 R259A, chain 1 of 2): as the sequence (P05412 252-315 R259A, chain 1 of 2) above
Jun bZIP R259A;Fos bZIP R158A, sequence (P01100 137-200 R158A, chain 2 of 2): as the sequence (P01100 137-200 K153A, chain 2 of 2) above, with A17K, R22A counted along it
Series [14] deals with Jun bZIP K273A;Fos bZIP R144A (human;human, UniProt P05412;P01100 252-315;137-200, K273A|R144A).
Jun bZIP K273A;Fos bZIP R144A, sequence (P05412 252-315 K273A, chain 1 of 2): as the sequence (P05412 252-315 R259A, chain 1 of 2) above, with A8R, K22A counted along it
Jun bZIP K273A;Fos bZIP R144A, sequence (P01100 137-200 R144A, chain 2 of 2): as the sequence (P01100 137-200 K153A, chain 2 of 2) above, with R8A, A17K counted along it
Series [15] has as its target Jun bZIP R259A;Fos bZIP R146A (human;human, UniProt P05412;P01100 252-315;137-200, R259A|R146A).
Another series has as its target Jun-Jun bZIP R272A (human, UniProt P05412 252-315, R272A).

Jun bZIP R270A;Fos bZIP R146A, sequence (P05412 252-315 R270A, chain 1 of 2): as the sequence (P05412 252-315 R259A, chain 1 of 2) above, with A8R, R19A counted along it
Jun bZIP R270A;Fos bZIP R146A, sequence (P01100 137-200 R146A, chain 2 of 2): as the sequence (P01100 137-200 K153A, chain 2 of 2) above, with R10A, A17K counted along it
Jun bZIP R259A;Fos bZIP R146A, sequence (P05412 252-315 R259A, chain 1 of 2): as the sequence (P05412 252-315 R259A, chain 1 of 2) above
Jun bZIP R259A;Fos bZIP R146A, sequence (P01100 137-200 R146A, chain 2 of 2): as the sequence (P01100 137-200 K153A, chain 2 of 2) above, with R10A, A17K counted along it
Jun bZIP R259A;Fos bZIP R157A, sequence (P05412 252-315 R259A, chain 1 of 2): as the sequence (P05412 252-315 R259A, chain 1 of 2) above
Jun bZIP R259A;Fos bZIP R157A, sequence (P01100 137-200 R157A, chain 2 of 2): as the sequence (P01100 137-200 K153A, chain 2 of 2) above, with A17K, R21A counted along it
Jun bZIP K258A;Fos bZIP K153A, sequence (P05412 252-315 K258A, chain 1 of 2): as the sequence (P05412 252-315 R259A, chain 1 of 2) above, with K7A, A8R counted along it
Jun bZIP K258A;Fos bZIP K153A, sequence (P01100 137-200 K153A, chain 2 of 2): as the sequence (P01100 137-200 K153A, chain 2 of 2) above
Jun-Jun bZIP R272A, sequence (P05412 252-315 R272A): as the sequence (P05412 252-315 R259A, chain 1 of 2) above, with A8R, R21A counted along it
Jun bZIP R272A;Fos bZIP R143A, sequence (P05412 252-315 R272A, chain 1 of 2): as the sequence (P05412 252-315 R259A, chain 1 of 2) above, with A8R, R21A counted along it
Jun bZIP R272A;Fos bZIP R143A, sequence (P01100 137-200 R143A, chain 2 of 2): as the sequence (P01100 137-200 K153A, chain 2 of 2) above, with R7A, A17K counted along it

B1: TRE duplex 15-mer (dsDNA)
DNA 1: CGCGTGACTCACCCC
DNA 2: GGGGTGAGTCACGCG
The term Kd denotes the equilibrium constant for the complex coming apart. Regarding B1, the Kd in [1] stood at 910 ± 70 nM; in [2], 3050 ± 120 nM; in [3] it was 1720 ± 150 nM; in series [4], 1450 ± 130 nM; in [5], 420 ± 20 nM; in [6], 680 ± 30 nM. Besides, the Kd in series [7] was determined as 860 ± 70 nM; in [8], 960 ± 60 nM; in series [9], 540 ± 30 nM; in the series with Jun-Jun bZIP K258A it was 4430 ± 190 nM; in series [10], 1390 ± 80 nM; in series [11], 660 ± 10 nM. The Kd in series [12] came out at 680 ± 10 nM; in series [13], 2160 ± 130 nM; in series [14], 3590 ± 300 nM; in [15] it was 2260 ± 140 nM; with Jun-Jun bZIP R272A it was 490 ± 40 nM.
